Molecular target: MERS-CoV S-protein (on 293FT effector cells) (MERS-CoV, UniProt K9N5Q8)
Test: cell-based or functional assay

With SLTQINTTLLDLTYEMLSLQQVVKALNESYIDLKEL [Peptide 1 (WT)] the “EC50 (µM), cell-cell fusion assay” value was 1.05 µM.
